For test [1], the target named is glucose 6-phosphate dehydrogenase from Leuconostoc mesenteroides, guanidine-denatured (Leuconostoc mesenteroides) (UniProt P11411).
Test [2] concerns the target tobacco Trx f C19/71S double mutant, His-tagged (Nicotiana tabacum). As to the kind of experiment: non-reducing SDS-PAGE with Western blot. For orientation: A western blot detects proteins with antibodies after separation by electrophoresis.
For test [3], the target named is tobacco Trx f C71S mutant, His-tagged (Nicotiana tabacum). As to the kind of experiment: non-reducing SDS-PAGE with Western blot.

Chain of UniProt P11411 (P11411 whole entry): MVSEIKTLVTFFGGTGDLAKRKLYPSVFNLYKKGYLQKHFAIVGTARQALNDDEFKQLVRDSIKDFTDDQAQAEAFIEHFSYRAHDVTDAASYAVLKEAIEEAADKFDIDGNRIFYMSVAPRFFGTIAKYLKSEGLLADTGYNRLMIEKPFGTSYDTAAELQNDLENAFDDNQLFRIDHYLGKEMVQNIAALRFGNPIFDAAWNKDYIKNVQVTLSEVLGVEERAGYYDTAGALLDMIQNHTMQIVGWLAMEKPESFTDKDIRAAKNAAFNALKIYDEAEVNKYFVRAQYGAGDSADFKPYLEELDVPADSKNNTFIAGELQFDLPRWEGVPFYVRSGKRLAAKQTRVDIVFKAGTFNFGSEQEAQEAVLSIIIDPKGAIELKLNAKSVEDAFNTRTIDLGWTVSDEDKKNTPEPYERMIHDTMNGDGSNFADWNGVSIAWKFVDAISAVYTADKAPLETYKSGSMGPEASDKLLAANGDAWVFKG

One may read the stoichiometry N as the number of molecules, sites or subunits per partner or assembly. “tobacco Trx f C19/71S double mutant, His-tagged (enzyme)” showed a chaperone foldase activity (G6PDH reactivation) relative to wild-type Trx f in test [1] of 80 % decrease. In test [2], this substance returned a stoichiometry N of 2.

In test [1], “tobacco Trx f C71S mutant, His-tagged (enzyme)” registered a chaperone foldase activity (G6PDH reactivation) relative to wild-type Trx f of 80 % decrease. This substance gave a stoichiometry N in test [3] of 2.

For the origin of these results see paper PMC3245471.
